Measured values reported in PMC4405576, “The Crystal Structure and Small-Angle X-Ray Analysis of CsdL/TcdA Reveal a New tRNA Binding Motif in the MoeB/E1 Superfamily” (PLoS ONE, 2015).

Legend:
CsdL/TcdA = biological target: T1, CsdL/TcdA (Escherichia coli, UniProt Q46927); assay: X-ray crystallography; conditions: crystals in 0.05 M potassium phosphate, 10% PEG1000, basic pH, 20 °C; 1.77 Å; K+ and Na+ bound; nucleotide-binding site crystallisation; 1.89 Å; AMP as obtained directly from the cell (co-purified); n
T1 sequence (Q46927 1-268): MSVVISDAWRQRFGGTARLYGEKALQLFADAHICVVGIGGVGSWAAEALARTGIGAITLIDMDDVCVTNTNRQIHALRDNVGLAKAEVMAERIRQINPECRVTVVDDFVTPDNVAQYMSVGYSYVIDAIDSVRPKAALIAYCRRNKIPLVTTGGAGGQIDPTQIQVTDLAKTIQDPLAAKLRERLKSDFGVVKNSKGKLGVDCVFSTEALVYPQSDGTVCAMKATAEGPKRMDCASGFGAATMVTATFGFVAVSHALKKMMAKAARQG

[1] = biological target: tRNA threonylcarbamoyladenosine dehydratase A (TcdA) (E. coli) (UniProt Q46927); assay: SEC; analytical gel filtration of TcdA alone; data not shown
[2] = biological target: tRNA threonylcarbamoyladenosine dehydratase A (TcdA) (E. coli) (UniProt Q46927); assay: AUC; sedimentation velocity and sedimentation equilibrium, 20°C, 20 mM HEPES, 100 mM KCl, 50 mM NaCl, pH 7.4; TcdA alone
[3] = biological target: tRNA threonylcarbamoyladenosine dehydratase A (TcdA) (E. coli) (UniProt Q46927); assay: SAXS; purified TcdA, batch setup, three concentrations between 0.5-5 mg/ml, 5°C, 20 mM sodium/potassium phosphate pH 7.4, 300 mM NaCl, 2 mM β-mercaptoethanol
[4] = tested on: TcdA (CsdL) (Escherichia coli); assay: intrinsic fluorescence quenching; conditions: native tRNA modifications possible, not determined

With `Nc1ncnc2c1ncn2[C@@H]1O[C@H](COP(=O)(O)O)[C@@H](O)[C@H]1O` [AMP] the X-ray crystallography (CsdL/TcdA) was “the nucleotide-binding residues stabilize AMP in a manner analogous to ATP”.
In the case of “tRNA threonylcarbamoyladenosine dehydratase A (TcdA) (from UniProt Q46927 1-268) (enzyme)”, the stoichiometry N [1] is reported as 2, the stoichiometry N [2] is reported as 2 and the stoichiometry N [3] is reported as 2.
tRNALys(UUU), overexpressed in E. coli was tested, and the Kd [4] was 3000 nM.
